Broadly, the Kd is the free concentration of one partner at which half of the binding sites on the other are occupied at equilibrium, for simple one-to-one binding. A lower Kd goes with tighter binding.

The target of series [1] is T1, pI73R (African swine fever virus (ASFV-GZ, …, UniProt A0A2X0RU36 1-72)). As to the kind of experiment: EMSA. (In EMSA bound probe runs differently from free probe, usually more slowly.)
Series [2] addresses T1, pI73R. The series can be described thus: BLI. In general terms: BLI is a label-free optical method that tracks binding on a fibre tip over time.

On to GCUUUGCAGCCGCGGCUCGGUUUAG (ssRNA) [High-GC ssRNA], for which the binding result with pI73R [1] is on record as “binds”. In the series with pI73R [2], TTGACGAGGAAGTGTCTGTT (ssDNA) [ssDNA] had a Kd of 113 nM. On the same count and under the same terms, to GCUUUGAUUUCGUGCAUCUAUGGAG (ssRNA) [ssRNA] belongs 37.5 nM.

B1: dsDNA (dsDNA)
DNA 1: TTGACGAGGAAGTGTCTGTT
DNA 2: AACAGACACTTCCTCGTCAA
B1 had a Kd in the series with pI73R [2] of 100 nM.

B2: dsRNA (dsRNA)
RNA 1: GCUUUGAUUUCGUGCAUCUAUGGAG
RNA 2: CUCCAUAGAUGCACGAAAUCAAAGC
In the series with pI73R [2], B2 displayed a Kd of 70 nM. This Kd and that of the molecule before are within 1.5-fold of each other.

For the origin of these results see paper PMC10104517.
